Experimental data from article PMC5042384, “Sequence-Dependent T:G Base Pair Opening in DNA Double Helix Bound by Cren7, a Chromatin Protein Conserved among Crenarchaea”.

T1: Cren7 (UniProt Q97ZE3 1-60)
T1 sequence: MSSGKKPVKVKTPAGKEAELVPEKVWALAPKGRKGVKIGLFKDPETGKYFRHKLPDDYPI

B1: d(GTGATCGC)2 (dsDNA)
DNA 1: GTGATCGC
DNA 2: GTGATCGC
B2: d(GTAATTGC)2 (dsDNA)
DNA 1: GTAATTGC
DNA 2: GTAATTGC

Key:
Cren7 [1] = target: T1, Cren7; assay: X-ray crystallography; 2.1 A; both T:G wobble; SPR (BIAcore 3000): 50 mM Tris-Cl pH 7.5, 100 mM NaCl, 1 mM EDTA, 0.005% Tween 20, 25 C, 1:1 Langmuir global fit; crystals: protein:DNA 1:1.5, 30% PEG1500, 20 C; conditions: protein: recombinant; blunt; self-annealed octamer, 2 strand copies, T:G mispairs T2:G15 and G7:T10
Cren7 [2] = target: T1, Cren7; assay: X-ray crystallography; 2.0 A; T2:G15 open; SPR (BIAcore 3000): 50 mM Tris-Cl pH 7.5, 100 mM NaCl, 1 mM EDTA, 0.005% Tween 20, 25 C, 1:1 Langmuir global fit; crystals: protein:DNA 1:1.5, 30% PEG1500, 20 C; conditions: protein: recombinant; blunt; self-annealed octamer, 2 strand copies, T:G mispairs T2:G15 and G7:T10

Binder	binding result (Cren7 [1])	binding result (Cren7 [2])
B1	binds	–
B2	–	binds
